Source: US11780927B2, “Anti-CD40 antibodies for use in prevention of graft rejection” (NOVARTIS AG, priority 2018, dated 2023)
Where “and” joins values, the source holds several entries; their conditions need not be identical. Identical values can stand only once.

Legend:
[1] = biological target: recombinant human CD40 (Homo sapiens, UniProt P25942); experiment: Surface plasmon resonance analysis of affinity for CD40; format: binding
Protocol: The binding analyses of recombinant CFZ533 were performed at 25° C. with HBS−EP+ as running buffer. A typical binding analysis cycle consisted of three steps: (i) capture of the antibody via ProteinA immobilized on the chip surface, (ii) binding of CD40 antigen to the captured anti-CD40 antibody, and (iii) regeneration of the ProteinA surface. To determine the kinetic rate constants of the antigen-antibody binding interactions, binding data were processed, double referenced with responses from blank injections. The binding curves were fitted locally using the 1:1 interaction model of the Biacore T100 Evaluation software to determine kinetic rate constants. The value for the equilibrium dissociation constant (KD) was calculated as the ratio of the rate constants kd/ka. All binding measurements were performed in two independent experiments.

[2] = system: CD20pos B cells; experiment: In vitro B cell depletion in human whole blood; format: cell-based; details: 72 hours; Rituximab 50 μg/ml, CFZ533 dose titration
Protocol: (§1) See supplementary material for detailed methods. Briefly, the ability of CFZ533 to mediated depletion of CD20^pos B cells was monitored in human whole blood over a period of three days in comparison to the B cell depleting antibody Rituximab. For CDC, CFZ533 or Rituximab were incubated with RAJI B cells in the presence or absence of rabbit complement and cell lysis was assessed by luminescence.
(§2) B cells numbers were determined based on CD45pos and CD19pos events falling within lymphocyte FSC (forward-scattered light)/SSC (side-scattered light) gate. Results for individual antibody concentrations were calculated as percent remaining B cells with reference to untreated samples and graphed as a function of log-transformed antibody concentration (adjusted to 100% and shown as a dotted line). Data represent the mean and SD of eight independent donors. […] Concentration dependent killing of the Raji cells was analyzed after 2 hours, where the viability of the cells was measured by determination of the ATP concentration in each well using luciferase. Results are presented as isotype-control normalized relative luciferase units (RLU) as a function of log-transformed antibody concentration.

[3] = system: RAJI B cells; experiment: Complement-dependent cytotoxicity with rabbit complement; format: cell-based; details: 2 hours
Protocol: as §1, §2

[4] = system: human B cell line RI-1; experiment: Internalization by image flow cytometry; format: cell-based; details: 3 hours at 37° C.
Protocol: Internalization of fluorescently tagged CFZ533 and rCD154 was assessed in vitro using the human B cell line RI-1 (Th'ng et al, 1987). CD40 dependence of CFZ533 internalization was assessed using a CD40 knockout RI-1 cell line. Internalization was assessed using an Amnis® image flow cytometer (Merck KHaA, Darnstadt) according to the manufacturer's instructions and data analyzed using ImageStream®^X software.
FIG. 8B. Relative internalization erode of CFZ533 and rCD154 under permissive conditions (non-permissive erode values subtracted). Each dot represents data from an individual experiment and the population mean is indicated as a horizontal red line. FIG. 8C. Representative images of individual CD40 expressing or CD40 knock-out RI-1 cells cultured with Alexa488 labeled CFZ533 for 3 hours at 37° C. In all experiments, cells were co-stained with AlexaFlour 647 labeled CD45 to demark the cell membrane.

[5] = Dose-range finding embryo-fetal development study; format: in vivo; details: rabbits
Text: Full guideline-conform reproductive toxicity studies have not been conducted thus far. However, a dose-range finding, embryo-fetal development (EFD) study in rabbits has been conducted in order to confirm the rabbit as relevant reproductive toxicology species.

[6] = system: T cell-dependent antibody responses (TDAR); experiment: Recall T cell-dependent antibody response to KLH; format: in vivo, rhesus monkeys; details: at second KLH immunization, single 10 mg/kg i.v.
Protocol: Monkeys were immunized with KLH three times (the first was about 3 weeks prior to dosing, the second was 2 weeks after mAb1 administration, and the third was after complete wash-out of mAb1). […] Once mAb1 was cleared, all animals mounted a full memory antibody response to the third KLH.
In the PK study, CFZ533 was administered to three animals at calculated single doses of 16.2 (5532), 18.5 (5531) and 20 (5530) mg/kg. Blood was sampled for analyses of CFZ533 serum concentrations, numbers of peripheral T and B lymphocytes, and CD40 occupancy on peripheral B cells by CFZ533. For recall TDAR experiments, animals were immunized with keyhole limpet hemocyanin (KLH) in Alum on study days 8 (priming) and 43 (recall; during CFZ533 treatment) respectively. Serum was sampled one day before and 7, 14 and 21 days after priming and recall immunizations. KLH specific IgM/IgG titers were determined with sandwich ELISA using cynomolgus monkey anti-KLH IgM/IgG reference serum as standard. PK assessment was performed as described above. See supplementary material for additional details on the PK and TDAR experiments.
Arrows below the x-axis highlight primary and secondary KLH immunizations. The timing of a single dose of 10 mg/kg CFZ533 is shown above. The asterisks indicate time points at which anti-KLH IgG and/or CFZ533 levels were measured. FIG. 10B. […]

[7] = system: life-supporting kidney allografts; experiment: NHP model of kidney allograft rejection; format: in vivo, cynomolgus monkeys (Macaca fascicularis)
[8] = system: PBMCs; details: Rhesus
[9] = cynomolgus monkey, in vivo
[10] = 13-week GLP toxicity study
[11] = 26-week chronic toxicity study

recombinant human CD40, sequence (P25942 21-277): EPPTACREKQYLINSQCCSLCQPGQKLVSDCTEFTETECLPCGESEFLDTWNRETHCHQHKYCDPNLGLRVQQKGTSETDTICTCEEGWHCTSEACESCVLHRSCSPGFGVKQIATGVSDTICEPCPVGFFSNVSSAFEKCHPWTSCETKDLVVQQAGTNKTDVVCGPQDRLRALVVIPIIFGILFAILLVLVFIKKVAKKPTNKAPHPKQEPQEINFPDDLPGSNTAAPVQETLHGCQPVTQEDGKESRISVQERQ

Substance: CFZ533: human anti-CD40 IgG1 monoclonal antibody with Fc-silencing N297A mutation; heavy chain SEQ ID NO: 9, light chain SEQ ID NO: 10
- ka [1/Ms] ([1]; SPR, 25° C.): 3.13 ± 0.73 × 10^5 1/Ms
- kd [1/s] ([1]; SPR, 25° C.): 0.93 ± 0.14 × 10^−4 1/s
- Kd ([1]; surface plasmon resonance): 0.3 nM
- B cells eliminated in human whole blood [2]: failed to mediate any cell depletion
- Complement-dependent cytotoxicity (CDC) of Raji B cells [3]: unable to mediate complement-dependent cytotoxicity
- Internalization by RI-1 B cells [4]: internalized
- Effects on embryo-fetal development [5]: No effects on embryo-fetal development
- CFZ533 concentration required for complete suppression of recall TDAR ([6]; 10 mg/kg): > 40 µg/mL and 30 to 40 µg/mL
- CFZ533 concentration required for complete suppression of recall TDAR ([6]; listed as mAb1, 10 mg/kg): > 40 µg/mL
- Days after Transplantation (median days) ([7]; CFZ533 30 mg/kg i.v. monotherapy, n 5): 95 days
- Survival of kidney allografts and graft morphology ([7]; combination with CsA (20 mg/kg p.o.) or monotherapy): demonstrated efficacy in increasing the survival of kidney allografts in NHPs
- Inhibition of rCD154-induced proliferation (IC50 PBMCs) [8]: 0.03 µg/mL and 0.026 ± 0.017 µg/mL
- average concentration at steady state (Cav,ss) ([9]; 150 mg/kg): 8300 µg/mL
- systemic exposure (AUC, steady state conditions) over a 1-month period ([9]; 150 mg/kg): 232400 µg·days/mL
- Cmax,ss (mean, all animals) ([9]; sc, 50 mg/kg): 3235 µg/mL
- Increased lymphoid cellularity ([10]; weekly dosing at 10, 50 and 150 mg/kg): 5/22
- No Observed Adverse Effect Level (NOAEL) ([10]; weekly dosing, rhesus monkey): 10 mg/kg
- serum concentration with incomplete or no suppression of GCs ([11]; 1 mg/kg/week subcutaneously, 26 weeks): below 20 μg/mL
- NOAEL ([11]; 26-week, cynomolgus monkeys): 150 mg/kg
- Cmax,ss at NOAEL versus expected human Cmax ([11]; proposed intravenous regimen): 24 fold
